Experimental data published in patent US8586031B2, “Method of reusing rinse water from disinfecting packages with peracid and catalase” (Ecolab USA Inc., priority 2008, dated 2013).

Assay: Decomposition of hydrogen peroxide by catalase in about 20,000 ppm acetic acid and 500-800 ppm hydrogen peroxide at 60° C., thiosulfate titration
Assay type: biochemical
Method: Example 1 compared the ability to various catalase enzymes at 100 ppm concentration to decompose hydrogen peroxide. For this example, an aliquot of a stock solution of catalase was added to 1000 ml of a solution containing about 20,000 ppm acetic acid and 500-800 ppm of hydrogen peroxide at 60° C. The catalase addition was done at a rate that produced an enzyme concentration of 100 ppm in the 1000 ml solution The concentration of the hydrogen peroxide was measured at time zero and at 5, 10, and 15 minutes. The concentration of hydrogen peroxide was measured via titration of a 10 ml aliquot of solution including 1-2 ml of […], 1-2 ml concentrated sulfuric acid, 4-5 drops of an oxygen catalyst (saturated solution of Ammonium Molybdate) and a few drops of a starch solution. The titrant was 0.1 N Sodium thio sulfate. The solution was titrated to a colorless endpoint and the peroxide concentration was calculated via the following calculation:
Example 2 compared the ability to various catalase enzymes at 20 ppm concentration to decompose hydrogen peroxide. For this example, 20 ppm of catalase enzyme was diluted in 20,000 ppm acetic acid and 500-800 ppm of hydrogen peroxide at 60° C. The concentration of the hydrogen peroxide was measured at time zero and at 5, 10, and 15 minutes in the same manner as outlined in example 1.

B1: Bovine Catalase: crystaline bovine liver catalase, Sigma Aldrich (protein, UniProt P00432 2-527, looked up)
Catalase: ADNRDPASDQMKHWKEQRAAQKPDVLTTGGGNPVGDKLNSLTVGPRGPLLVQDVVFTDEMAHFDRERIPERVVHAKGAGAFGYFEVTHDITRYSKAKVFEHIGKRTPIAVRFSTVAGESGSADTVRDPRGFAVKFYTEDGNWDLVGNNTPIFFIRDALLFPSFIHSQKRNPQTHLKDPDMVWDFWSLRPESLHQVSFLFSDRGIPDGHRHMNGYGSHTFKLVNANGEAVYCKFHYKTDQGIKNLSVEDAARLAHEDPDYGLRDLFNAIATGNYPSWTLYIQVMTFSEAEIFPFNPFDLTKVWPHGDYPLIPVGKLVLNRNPVNYFAEVEQLAFDPSNMPPGIEPSPDKMLQGRLFAYPDTHRHRLGPNYLQIPVNCPYRARVANYQRDGPMCMMDNQGGAPNYYPNSFSAPEHQPSALEHRTHFSGDVQRFNSANDDNVTQVRTFYLKVLNEEQRKRLCENIAGHLKDAQLFIQKKAVKNFSDVHPEYGSRIQALLDKYNEEKPKNAVHTYVQHGSHLSAREKANL
decrease of the concentration of hydrogen peroxide (20 ppm catalase): did not measurably decrease | Hydrogen Peroxide Concentration (20 ppm catalase, 0 minutes): 600 ppm | Hydrogen Peroxide Concentration (20 ppm catalase, 5 minutes): 600 ppm | Hydrogen Peroxide Concentration (20 ppm catalase, 10 minutes): 600 ppm | Hydrogen Peroxide Concentration (20 ppm catalase, 15 minutes): 600 ppm | decreased the concentration of hydrogen peroxide by (100 ppm catalase, 0 to 15 minutes): 28.9 ppm | Hydrogen Peroxide Concentration (100 ppm catalase, 0 minutes): 581.4 ppm | Hydrogen Peroxide Concentration (100 ppm catalase, 5 minutes): 564.4 ppm | Hydrogen Peroxide Concentration (100 ppm catalase, 10 minutes): 561 ppm | Hydrogen Peroxide Concentration (100 ppm catalase, 15 minutes): 552.5 ppm
